Read-outs that look alike come from different tables or passages of the source.
B1: VR3 (red abalone VERL repeat 3 without the interdomain linker) (domain or fragment)
chain: DWDVYCSQDESIPAKFISRLVTSKDQALEKTEINCSNGLVPITQEFGINMMLIQYTRNELLDSPGMCVFWGPYSVPKNDTVVLYTVTARLKWSEGPPTNLSIQCYMPKSPVAPK
B2: mMBP-VR3 (mammalianized maltose-binding protein fusion of VERL repeat 3) (domain or fragment)
chain: B1 chain

Key:
crystal structure [1] = target: the molecule itself; assay: crystal structure
crystal structure [2] = target: the molecule itself; assay: crystal structure; remark: listed apart in the source

| Protein | binding result (crystal structure [1]) | binding result (crystal structure [2]) |
| --- | --- | --- |
| B1 | binds |  |
| B2 |  | binds |

From PMC5480393 (Cell, 2017)
